From the supplement of paper PMC5998384 come the findings set out here.

Series [1] relates to HeLa Kyoto. In words: melting temperature (median over replicates), in situ; higher = more thermally stable.
Series [2] concerns HeLa Kyoto. In words: solubility in G1/S (NP-40 vs SDS abundance) (log2 ratio); higher = more soluble. Conditions: cell cycle stage: G1/S.
Series [3] has as its system HeLa Kyoto. In words: thermal stability score vs G1/S (z-score of summed log2 fold changes over temperatures); higher = more thermally stable than in G1/S.
Series [4] concerns HeLa Kyoto. In words: solubility change mitosis vs G1/S (difference of NP-40 vs SDS log2 ratios) (log2 ratio difference); higher = more soluble in mitosis.
Setting [5] is: cell cycle stage: early G1 (4.5 h after nocodazole release).
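Throughout, for melting temperature (median over replicates), in situ: HeLa Kyoto cells synchronized by double thymidine or nocodazole block, proteins quantified by TMT10plex mass spectrometry, three independent biological replicates.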
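Throughout, for solubility change mitosis vs G1/S (difference of NP-40 vs SDS log2 ratios): synchronized HeLa Kyoto cells (double thymidine block for G1/S, nocodazole release for mitosis), protein amounts in NP-40 versus SDS lysates quantified by mass spectrometry, three biological replicates.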
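Throughout, for solubility in G1/S (NP-40 vs SDS abundance): HeLa Kyoto cells arrested at G1/S by double thymidine block, proteins quantified by TMT10plex mass spectrometry in mild NP-40 versus SDS extracts, three biological replicates.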
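Throughout, for thermal stability score vs G1/S (z-score of summed log2 fold changes over temperatures): synchronized HeLa Kyoto cells, proteins quantified by TMT10plex mass spectrometry, three biological replicates, mitosis taken 0.5 h after nocodazole release, G1/S directly after double thymidine block.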

On to “MSLRIDVDTNFPECVVDAGKVTLGTQQRQEMDPRLREKQNEIILRAVCALLNSGGGIIKAEIENKGYNYERHGVGLDVPPIFRSHLDKMQKENHFLIFVKSWNTEAGVPLATLCSNLYHRERTSTDVMDSQEALAFLKCRTQTPTNINVSNSLGPQAAQGSVQYEGNINVSAAALFDRKRLQYLEKLNLPESTHVEFVMFSTDVSHCVKDRLPKCVSAFANTEGGYVFFGVHDETCQVIGCEKEKIDLTSLRASIDGCIKKLPVHHFCTQRPEIKYVLNFLEVHDKGALRGYVCAIKVEKFCCAVFAKVPSSWQVKDNRVRQLPTREWTAWMMEADPDLSRCPEMVLQLSLSSATPRSKPVCIHKNSECLKEQQKRYFPVFSDRVVYTPESLYKELFSQHKGLRDLINTEMRPFSQGILIFSQSWAVDLGLQEKQGVICDALLISQNNTPILYTIFSKWDAGCKGYSMIVAYSLKQKLVNKGGYTGRLCITPLVCVLNSDRKAQSVYSSYLQIYPESYNFMTPQHMEALLQSLVIVLLGFKSFLSEELGSEVLNLLTNKQYELLSKNLRKTRELFVHGLPGSGKTILALRIMEKIRNVFHCEPANILYICENQPLKKLVSFSKKNICQPVTRKTFMKNNFEHIQHIIIDDAQNFRTEDGDWYGKAKFITQTARDGPGVLWIFLDYFQTYHLSCSGLPPPSDQYPREEINRVVRNAGPIANYLQQVMQEARQNPPPNLPPGSLVMLYEPKWAQGVPGNLEIIEDLNLEEILIYVANKCRFLLRNGYSPKDIAVLFTKASEVEKYKDRLLTAMRKRKLSQLHEESDLLLQIGDASDVLTDHIVLDSVCRFSGLERNIVFGINPGVAPPAGAYNLLLCLASRAKRHLYILKASV [SLFN5]”, for which the melting temperature in series [1] (cell cycle stage: G1/S) amounted to 48.5 °C; in series [1] (cell cycle stage: mitosis), 49.4 °C. In addition, the “solubility in G1/S (log2)” value in series [2] was -0.0689. Besides, the thermal stability score is 1.54 in series [3] (setting [5]) and 2.13 in series [3] (cell cycle stage: mitosis). Also, the “solubility change mitosis (log2)” value in series [4] was -0.0585.
For “MWFFARDPVRDFPFELIPEPPEGGLPGPWALHRGRKKATGSPVSIFVYDVKPGAEEQTQVAKAAFKRFKTLRHPNILAYIDGLETEKCLHVVTEAVTPLGIYLKARVEAGGLKELEISWGLHQIVKALSFLVNDCSLIHNNVCMAAVFVDRAGEWKLGGLDYMYSAQGNGGGPPRKGIPELEQYDPPELADSSGRVVREKWSADMWRLGCLIWEVFNGPLPRAAALRNPGKIPKTLVPHYCELVGANPKVRPNPARFLQNCRAPGGFMSNRFVETNLFLEEIQIKEPAEKQKFFQELSKSLDAFPEDFCRHKVLPQLLTAFEFGNAGAVVLTPLFKVGKFLSAEEYQQKIIPVVVKMFSSTDRAMRIRLLQQMEQFIQYLDEPTVNTQIFPHVVHGFLDTNPAIREQTVKSMLLLAPKLNEANLNVELMKHFARLQAKDEQGPIRCNTTVCLGKIGSYLSASTRHRVLTSAFSRATRDPFAPSRVAGVLGFAATHNLYSMNDCAQKILPVLCGLTVDPEKSVRDQAFKAIRSFLSKLESVSEDPTQLEEVEKDVHAASSPGMGGAAASWAGWAVTGVSSLTSKLIRSHPTTAPTETNIPQRPTPEGVPAPAPTPVPATPTTSGHWETQEEDKDTAEDSSTADRWDDEDWGSLEQEAESVLAQQDDWSTGGQVSRASQVSNSDHKSSKSPESDWSSWEAEGSWEQGWQEPSSQEPPPDGTRLASEYNWGGPESSDKGDPFATLSARPSTQPRPDSWGEDNWEGLETDSRQVKAELARKKREERRREMEAKRAERKVAKGPMKLGARKLD [SCYL1]”, the figures for the melting temperature in series [1] (cell cycle stage: G1/S) and in series [1] (cell cycle stage: mitosis) were 50.9 °C and 50.3 °C, respectively. The “solubility in G1/S (log2)” value in series [2] is -0.162. The thermal stability score came to 0.0922 in series [3] (setting [5]) and 0.113 in series [3] (cell cycle stage: mitosis). Also, the “solubility change mitosis (log2)” value in series [4] is -0.184.
In the case of “MAPQVWRRRTLERCLTEVGKATGRPECFLTIQEGLASKFTSLTKVLYDFNKILENGRIHGSPLQKLVIENFDDEQIWQQLELQNEPILQYFQNAVSETINDEDISLLPESEEQEREEDGSEIEADDKEDLEDLEEEEVSDMGNDDPEMGERAENSSKSDLRKSPVFSDEDSDLDFDISKLEQQSKVQNKGQGKPREKSIVDDKFFKLSEMEAYLENIEKEEERKDDNDEEEEDIDFFEDIDSDEDEGGLFGSKKLKSGKSSRNLKYKDFFDPVESDEDITNVHDDELDSNKEDDEIAEEEAEELSISETDEDDDLQENEDNKQHKESLKRVTFALPDDAETEDTGVLNVKKNSDEVKSSFEKRQEKMNEKIASLEKELLEKKPWQLQGEVTAQKRPENSLLEETLHFDHAVRMAPVITEETTLQLEDIIKQRIRDQAWDDVVRKEKPKEDAYEYKKRLTLDHEKSKLSLAEIYEQEYIKLNQQKTAEEENPEHVEIQKMMDSLFLKLDALSNFHFIPKPPVPEIKVVSNLPAITMEEVAPVSVSDAALLAPEEIKEKNKAGDIKTAAEKTATDKKRERRKKKYQKRMKIKEKEKRRKLLEKSSVDQAGKYSKTVASEKLKQLTKTGKASFIKDEGKDKALKSSQAFFSKLQDQVKMQINDAKKTEKKKKKRQDISVHKLKL [MPHOSPH10]”, the melting temperature in series [1] (cell cycle stage: G1/S) and in series [1] (cell cycle stage: mitosis) was 52.4 °C throughout. The “solubility in G1/S (log2)” value in series [2] was -2.07. In addition, the values for the thermal stability score in series [3] (setting [5]) and in series [3] (cell cycle stage: mitosis) were 3.5 and 1.06, respectively. For the same sequence, the “solubility change mitosis (log2)” value in series [4] is 1.06.
In the case of “MVRGRISRLSVRDVRFPTSLGGHGADAMHTDPDYSAAYVVIETDAEDGIKGCGITFTLGKGTEVVVCAVNALAHHVLNKDLKDIVGDFRGFYRQLTSDGQLRWIGPEKGVVHLATAAVLNAVWDLWAKQEGKPVWKLLVDMDPRMLVSCIDFRYITDVLTEEDALEILQKGQIGKKEREKQMLAQGYPAYTTSCAWLGYSDDTLKQLCAQALKDGWTRFKVKVGADLQDDMRRCQIIRDMIGPEKTLMMDANQRWDVPEAVEWMSKLAKFKPLWIEEPTSPDDILGHATISKALVPLGIGIATGEQCHNRVIFKQLLQAKALQFLQIDSCRLGSVNENLSVLLMAKKFEIPVCPHAGGVGLCELVQHLIIFDYISVSASLENRVCEYVDHLHEHFKYPVMIQRASYMPPKDPGYSTEMKEESVKKHQYPDGEVWKKLLPAQEN [ENOSF1]”, the melting temperature was determined as 54.7 °C in series [1] (cell cycle stage: G1/S) and 55.1 °C in series [1] (cell cycle stage: mitosis). Also, in series [2], the “solubility in G1/S (log2)” value stood at 0.0883. The thermal stability score in series [3] (setting [5]) is -0.19; in series [3] (cell cycle stage: mitosis), -1.12. In addition, the “solubility change mitosis (log2)” value in series [4] is -0.108.
